The values below come from publication doi:10.1101/2020.12.29.424758 (bioRxiv, 2020).

This experiment has as its target YiiP from S. oneidensis (wild-type) (S. oneidensis, UniProt Q8E919). Put plainly: SEC. In general terms: SEC sorts molecules by how far they enter the pores of the column.

YiiP from S. oneidensis (wild-type), sequence (Q8E919 whole entry): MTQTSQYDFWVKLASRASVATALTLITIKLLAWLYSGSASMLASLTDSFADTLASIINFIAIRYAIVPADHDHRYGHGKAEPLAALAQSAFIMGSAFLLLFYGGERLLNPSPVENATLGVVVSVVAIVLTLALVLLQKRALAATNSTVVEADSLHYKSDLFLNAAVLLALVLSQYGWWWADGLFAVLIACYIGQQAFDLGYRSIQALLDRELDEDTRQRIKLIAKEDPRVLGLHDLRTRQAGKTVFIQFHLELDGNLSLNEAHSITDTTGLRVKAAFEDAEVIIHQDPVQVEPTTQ

B1: Fab2 (Fab, V domains shown)
VH: EVQLVESGGGLVQPGGSLRLSCAASGFTIYSSSIHWVRQAPGKGLEWVASIYSSSGSTYYADSVKGRFTISADTSKNTAYLQMNSLRAEDTAVYYCARQSYSGLSPRRHWSYGAMDYWGQGTLVTVSS
VL: DIQMTQSPSSLSASVGDRVTITCRASQSVSSAVAWYQQKPGKAPKLLIYSASSLYSGVPSRFSGSRSGTDFTLTISSLQPEDFATYYCQQIWSWPLITFGQGTKVEIK
For B1, the binding result is on record as “binds”.
